Measured values taken from patent publication US20220251241A1 (NGM BIOPHARMACEUTICALS, published 2022).
Blank lines part the entries; values can stand above or below the binder they belong to.

Experiments:
[1] = molecular target: T1, HTRA1 (construct not given) (Homo sapiens (Human), UniProt Q92743 23-480, limits assumed); experiment: cell-based or functional assay
[2] = molecular target: T1, HTRA1 (construct not stated in the …); experiment: SPR (Biacore), 25° C.; antibody captured; sample stored 8 weeks at pH 7.4, 40° C.
Procedure: (§1) The binding affinities of anti-HTRA1 antibodies to human HTRA1 were measured using a Biacore system (GE Healthcare Life Sciences). Briefly, anti-Fc antibody (Sigma-Aldrich) was immobilized on all four flow cells of a CMS chip using amine coupling reagents (GE Healthcare LifeSciences). Antibodies were captured on flow cells 2, 3, and 4 using flow cell 1 as a reference. […] Kinetic data were collected over time and fit using the simultaneous global fit equation to yield affinity constants (KD values) for each antibody. […]

[3] = molecular target: T2, HTRA1-catalytic domain (HTRA1-CAT; amino acids 156-364 of SEQ ID NO:1) (human, UniProt Q92743 156-364); experiment: SPR (Biacore), 25° C.; * = Limit of Detection; 25° C.; HTRA1-CAT; kon at limit of detection
T2 construct: Wild-type catalytic domain construct; also called HTRA1 catalytic domain protein

[4] = molecular target: T1, HTRA1 (construct not stated in the …); experiment: SPR (Biacore), 25° C.; antibody captured; sample stored 4 weeks at pH 7.4, 40° C.
Procedure: as §1

[5] = molecular target: T1, HTRA1 (construct not stated in the …); experiment: SPR (Biacore); affinity at baseline
[6] = molecular target: T1, HTRA1 (construct not stated in the …); experiment: cell-based or functional assay; remark: listed apart in the source
[7] = molecular target: T2, HTRA1-catalytic domain (HTRA1-CAT; …); experiment: SPR (Biacore), 37° C.
Procedure: (§2) The binding affinities of anti-HTRA1 antibodies to human HTRA1 were measured using a Biacore system (GE Healthcare Life Sciences). Briefly, anti-Fc antibody (Sigma-Aldrich) was immobilized on all four flow cells of a CMS chip using amine coupling reagents (GE Healthcare LifeSciences). Antibodies were captured on flow cells 2, 3, and 4 using flow cell 1 as a reference. Concentrations ranging from 3.3-10 nM of human delta N-HTRA1 were injected at a flow rate of 50 μL/min at 37° C. Kinetic data were collected over time and fit using the simultaneous global fit equation to yield affinity constants (KD values) for each antibody.
(§3) The binding affinity of hz24F7.v2 to a HTRA1 full length protein (HTRA1-FL) or a HTRA1-CAT was determined using a Biacore system as described herein and compared with the binding affinity of the parental 24F7 antibody (see Table 9).

[8] = molecular target: T3, human HTRA1 full length protein (HTRA1-FL) (human, UniProt Q92743 23-480); experiment: SPR (Biacore), 37° C.
T3 construct: also called human HTRA1-FL
Procedure: as §2, §3

[9] = molecular target: T1, HTRA1 (construct not stated in the …); experiment: protease inhibition assay, H2-Opt peptide substrate; apparent Ki (Ki^app)
[10] = molecular target: T2, HTRA1-catalytic domain (HTRA1-CAT; …); experiment: SPR (Biacore), 25° C.
[11] = molecular target: T3, human HTRA1 full length protein …; experiment: SPR (Biacore), 25° C.
[12] = molecular target: T1, HTRA1 (construct not stated in the …); experiment: cell-based or functional assay; remark: listed apart in the source
[13] = molecular target: T1, HTRA1 (construct not stated in the …); experiment: SPR (Biacore), 25° C.; antibody captured; sample stored 0 weeks at pH 7.4, 40° C.
Procedure: as §1

[14] = molecular target: endogenous HTRA1 protein in the serum of the animals dosed with hz24F7.v2 (PK serum samples) (cynomolgus monkey); experiment: cell-based or functional assay
[15] = molecular target: T1, HTRA1 (construct not stated in the …); experiment: protease inhibition assay, casein substrate; apparent Ki (Ki^app)
Description: (§4) Two enzymatic assays were used to characterize HTRA1 protease activity and evaluate inhibitory activity of anti-HTRA1 antibodies. EnzChek® Protease Assay Kit (ThermoFisher Scientific) was used following the manufacturer's instructions. This kit contains casein protein that is heavily labeled with the pH-insensitive green-fluorescent BOPIPY® FL dye that results in almost total quenching of the conjugate's fluorescence. Protease-catalyzed hydrolysis of labeled casein releases highly fluorescent BODIPY® FL dye-labeled peptides. The concomitant increase in fluorescence is proportional to protease activity.
To confirm that the humanized version of antibody 24F7 retained the ability to inhibit H IRA1 protease activity, hz24F7.v2 was assessed in casein and H2-Opt assays as described herein.

[16] = molecular target: T1, HTRA1 (construct not stated in the …); experiment: cell-based or functional assay; remark: listed apart in the source
[17] = molecular target: T2, HTRA1-catalytic domain (HTRA1-CAT; …); experiment: SPR (Biacore), 37° C.; kon at the limit of detection
Procedure: as §2, §3

[18] = molecular target: T2, HTRA1-catalytic domain (HTRA1-CAT; …); experiment: SPR (Biacore), 37° C.; * = Limit of Detection
Procedure: as §2, §3

[19] = molecular target: T1, HTRA1 (construct not stated in the …); experiment: SPR (Biacore), 25° C.; antibody captured; sample stored 2 weeks at pH 7.4, 40° C.
Procedure: as §1

[20] = molecular target: T2, HTRA1-catalytic domain (HTRA1-CAT; …); experiment: SPR (Biacore), 25° C.; kon at the limit of detection
[21] = molecular target: T1, HTRA1 (construct not stated in the …); experiment: protease inhibition assay, casein substrate (EnzChek); apparent Ki (Ki^app)
Description: as §4
Antibodies identified in HTRA1 binding assays were tested for their ability to inhibit HTRA1 protease activity. The range of antibody concentrations was tested to establish a dose response curve and determine IC₅₀ values.

[22] = molecular target: T1, HTRA1 (construct not stated in the …); experiment: cell-based or functional assay; remark: listed apart in the source
[23] = molecular target: T1, HTRA1 (construct not stated in the …); experiment: protease inhibition assay, H2-Opt peptide substrate (FRET); apparent Ki (Ki^app)
[24] = molecular target: T1, HTRA1 (construct not stated in the …); experiment: cell-based or functional assay; remark: listed apart in the source
[25] = molecular target: T1, HTRA1 (construct not stated in the …); experiment: cell-based or functional assay; remark: listed apart in the source
[26] = molecular target: endogenously expressed HTRA1 secreted by the human melanoma cell line C32 (human, UniProt Q92743 23-480); experiment: cell-based or functional assay
HTRA1-CAT R190A mutant = HTRA1-CAT R190A mutant (human, UniProt Q92743 156-364); experiment: ELISA
Procedure: (§5) A series of mutated HTRA1-catalytic domain (HTRA1-CAT; amino acids 156-364 of SEQ ID NO:1) proteins containing single amino acid substitutions were generated by standard methods (e.g., site directed mutagenesis). Antibody 24F7 was tested by ELISA for binding to these mutant HTRA1-CAT proteins as well as a wild-type HTRA1 peptide consisting of amino acids […] (SEQ ID NO:92; R190—V201 of SEQ ID NO:1).

HTRA1-CAT F194A mutant = HTRA1-CAT F194A mutant (human, UniProt Q92743 156-364); experiment: ELISA
Procedure: as §5

HTRA1-CAT R197A mutant = HTRA1-CAT R197A mutant (human, UniProt Q92743 156-364); experiment: ELISA
Procedure: as §5

HTRA1-CAT P193A mutant = HTRA1-CAT P193A mutant (human, UniProt Q92743 156-364); experiment: ELISA
Procedure: as §5

[27] = molecular target: T4, wild-type HTRA1 peptide RKLPFSKREVPV (R190-V201 of SEQ ID NO:1) (human); experiment: ELISA
T4 construct: also called Wild type peptide (R190 - V201)
T4 peptide: RKLPFSKREVPV
Procedure: as §5

[28] = molecular target: human delta N-HTRA1 (amino acids 156-480 of SEQ ID NO:1) (human, UniProt Q92743 156-480); experiment: SPR (Biacore); antibody captured by anti-Fc, human delta N-HTRA1 injected; temperature of this table not stated
Procedure: as §2

[29] = molecular target: T1, HTRA1 (construct not stated in the …); experiment: SPR (Biacore), 25° C.
Procedure: The binding affinities of anti-HTRA1 antibodies to human HTRA1 were measured using a Biacore system (GE Healthcare Life Sciences). Briefly, anti-Fc antibody (Sigma-Aldrich) was immobilized on all four flow cells of a CMS chip using amine coupling reagents (GE Healthcare LifeSciences). Antibodies were captured on flow cells 2, 3, and 4 using flow cell 1 as a reference. […] Kinetic data were collected over time and fit using the simultaneous global fit equation to yield affinity constants (KD values) for each antibody.
(§6) SPR assays were set up using a Biacore system as described herein.

[30] = molecular target: T1, HTRA1 (construct not stated in the …); experiment: SPR (Biacore), 37° C.
Procedure: as §2, §6

Sequence of human delta N-HTRA1 (amino acids 156-480 of SEQ ID NO:1) (Q92743 156-480, stated change not applied): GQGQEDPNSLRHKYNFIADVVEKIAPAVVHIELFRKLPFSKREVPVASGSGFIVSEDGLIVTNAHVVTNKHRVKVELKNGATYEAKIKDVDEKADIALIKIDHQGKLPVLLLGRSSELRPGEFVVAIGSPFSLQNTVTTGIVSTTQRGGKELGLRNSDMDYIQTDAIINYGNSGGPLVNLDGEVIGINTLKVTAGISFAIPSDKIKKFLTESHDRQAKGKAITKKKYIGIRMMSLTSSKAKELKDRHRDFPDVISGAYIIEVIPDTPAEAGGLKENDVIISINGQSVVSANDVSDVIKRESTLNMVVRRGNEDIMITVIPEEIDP
T3 sequence (Q92743 23-480): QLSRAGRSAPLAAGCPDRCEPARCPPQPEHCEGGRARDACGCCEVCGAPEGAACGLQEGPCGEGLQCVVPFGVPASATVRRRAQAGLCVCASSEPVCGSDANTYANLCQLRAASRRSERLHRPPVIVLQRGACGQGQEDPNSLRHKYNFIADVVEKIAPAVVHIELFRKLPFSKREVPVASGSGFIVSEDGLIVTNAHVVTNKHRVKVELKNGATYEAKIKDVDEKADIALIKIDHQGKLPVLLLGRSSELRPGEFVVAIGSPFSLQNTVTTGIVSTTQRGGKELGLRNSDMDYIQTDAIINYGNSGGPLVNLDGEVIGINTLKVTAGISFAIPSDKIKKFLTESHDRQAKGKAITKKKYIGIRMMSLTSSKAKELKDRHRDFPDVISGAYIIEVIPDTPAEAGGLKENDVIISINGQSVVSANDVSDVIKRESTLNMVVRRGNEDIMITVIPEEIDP
T1 sequence (Q92743 23-480 limits assumed): as the sequence (Q92743 23-480) above
T2 sequence (Q92743 156-364): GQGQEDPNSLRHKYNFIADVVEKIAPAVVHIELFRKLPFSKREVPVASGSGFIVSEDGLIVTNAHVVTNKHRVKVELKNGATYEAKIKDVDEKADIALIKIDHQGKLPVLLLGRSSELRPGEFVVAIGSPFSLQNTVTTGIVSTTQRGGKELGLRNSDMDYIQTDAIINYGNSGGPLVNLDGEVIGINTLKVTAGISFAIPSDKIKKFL
Sequence of HTRA1-CAT F194A mutant (Q92743 156-364 F194A): as the sequence (Q92743 156-364) above, with F39A counted along it
Sequence of endogenously expressed HTRA1 secreted by the human melanoma cell line C32 (Q92743 23-480): as the sequence (Q92743 23-480) above
Sequence of HTRA1-CAT R190A mutant (Q92743 156-364 R190A): as the sequence (Q92743 156-364) above, with R35A counted along it
Sequence of HTRA1-CAT R197A mutant (Q92743 156-364 R197A): as the sequence (Q92743 156-364) above, with R42A counted along it
Sequence of HTRA1-CAT P193A mutant (Q92743 156-364 P193A): as the sequence (Q92743 156-364) above, with P38A counted along it

IC50, Casein Assay [1]: 0.29 nM
IC50, H2-Opt Assay [1]: 0.12 nM
Kd [2]: 0.167 nM
koff [2]: 0.000502 s⁻¹
kon [2]: 3.01e+06 M⁻¹ s⁻¹
kon [3]: ≥ 3.9e+06 M⁻¹ s⁻¹
Kd [4]: 0.144 nM
koff [4]: 0.000388 s⁻¹
kon [4]: 2.68e+06 M⁻¹ s⁻¹
Kd [5]: 0.0176 nM
koff [5]: 0.000225 s⁻¹
kon [5]: 1.28e+07 M⁻¹ s⁻¹
IC50 (read off the curve), HTRA1 enzymatic assay, Hz24F7.v2 standard (dark squares) [6]: ~0.1 nM
koff [7]: 0.00017 s⁻¹
Kd [8]: 0.093 nM
koff [8]: 0.00014 s⁻¹
kon [8]: 1.5e+06 M⁻¹ s⁻¹
Ki [9]: 0.067 nM
koff [10]: 5.6e-05 s⁻¹
Kd [11]: 0.058 nM
koff [11]: 4.2e-05 s⁻¹
kon [11]: 710000 M⁻¹ s⁻¹
IC50 at baseline [12]: 0.066 nM
Kd [13]: 0.213 nM
koff [13]: 0.000416 s⁻¹
kon [13]: 1.95e+06 M⁻¹ s⁻¹
amount of HTRA1 protein in PK serum samples after IV dosing of hz24F7.v2 [14]: ~4 fold
amount of HTRA1 protein in PK serum samples after IVT dosing of hz24F7.v2 [14]: ~2 fold
Ki [15]: 0.086 nM
IC50, enzyme assay; hz24F7.v2 reference in the S91Y column [16]: 0.0645 nM
IC50, enzyme assay; hz24F7.v2 reference in the S92T column [16]: 0.0645 nM
Kd [17]: < 0.1 nM
kon [18]: 1.1e+07 M⁻¹ s⁻¹
Kd [19]: 0.178 nM
koff [19]: 0.000374 s⁻¹
kon [19]: 2.1e+06 M⁻¹ s⁻¹
Kd [20]: < 0.1 nM
B1: antibody hz24F7.v2 (antibody, human IgG1, kappa, N297G, V domains shown)
VH: QVQLVQSGAEVKKPGASVKVSCKASGYTFTDYEMHWVRQAPGQRLEWMGAIDPETGGTAYNQKFKGRVTITADKSASTAYMELSSLRSEDTAVYYCTREGYSYEGGGYYFDYWGQGTLVTVSS
VL: DIQMTQSPSSLSASVGDRVTITCSVSSSVSYMYWYQQKPGKAPKLLIYDTSNLASGVPSRFSGSGSGTDFTFTISSLQPEDIATYYCQQWSSYPTFGQGTKLEIKR
notes: also called humanized variant of 24F7

IC50, Casein Assay [1]: 0.35 nM
IC50, H2-Opt Assay [1]: 0.17 nM
Ki [21]: 0.054 nM
IC50 (read off the curve), HTRA1 protease assay, casein substrate 0.05 ug/ml (inverted triangles) [22]: ~0.2 nM
IC50 (read off the curve), HTRA1 protease assay, casein substrate 0.1 ug/ml (triangles) [22]: ~0.2 nM
IC50 (read off the curve), HTRA1 protease assay, casein substrate 0.2 ug/ml (circles) [22]: ~0.2 nM
IC50 (read off the curve), HTRA1 protease assay, casein substrate 0.3 ug/ml (squares) [22]: ~0.2 nM
Ki [23]: 0.118 nM
IC50, Protease Assay-Casein substrate [24]: 0.15 nM
IC50, Protease Assay-H2-Opt peptide [24]: 0.12 nM
Kd [8]: 0.047 nM
koff [8]: 8.6e-05 s⁻¹
kon [8]: 1.8e+06 M⁻¹ s⁻¹
Ki [9]: 0.076 nM
IC50 of inhibition of HTRA1 protease activity, H2-Opt peptide as substrate [25]: 0.164 nM
IC50 of inhibition of HTRA1 protease activity, casein as substrate [25]: 0.145 nM
IC50 of inhibition of protease activity, EnzChek protease assay with C32 conditioned media [26]: 0.118 nM
binding result (HTRA1-CAT R190A mutant): no binding
binding result (HTRA1-CAT F194A mutant): binds
binding result (HTRA1-CAT R197A mutant): no binding
binding result (HTRA1-CAT P193A mutant): binds
binding result [27]: no binding
Ki [15]: 0.099 nM
Kd [28]: 0.012 nM
koff [28]: 8.5e-05 s⁻¹
kon [28]: 7.4e+06 M⁻¹ s⁻¹
Kd [29]: 0.03 nM
koff [29]: 5e-05 s⁻¹
kon [29]: 1.6e+06 M⁻¹ s⁻¹
Kd [30]: 0.021 nM
koff [30]: 8.2e-05 s⁻¹
kon [30]: 4e+06 M⁻¹ s⁻¹
B2: antibody 24F7 (antibody, V domains shown)
VH: QVQLQQSGAELVRPGASVKLSCKASGYTFTDYEMHWVKQTPVHGLEWIGAIDPETGGTAYNQKFKGKATLTADKSSSTAYMELRSLTSEDSAVYYCTREGYSYDGGGYYFDYWGQGTTLTVSS
VL: QIVLTQSPAIMSASPGEKVTMTCSVSSSVSYMYWYQQKPGSSPRLLIYDTSNLASGVPVRFSGSGSGTSYSLTISRMEAEDAATYYCQQWSSYPTFGGGTKLEIK
notes: Mouse hybridoma monoclonal antibody; also called parental 24F7 antibody
